Assay results taken from patent US20230057012A1, “TGFB INHIBITORS AND USE THEREOF” (Scholar Rock, Inc., priority 2020, published 2023).

Molecular target: antigen of FIG. 2 (not named)
Assay: SPR Biacore, Fab (FIG. 2)

B1: Ab46 Fab (Fab, V domains shown)
VH: EVQLLESGGGLVQPGGSLRLSCAASGFTFADYAMTWVRQAPGKGLEWVSAISGSGAATYFADSVKGRFTISRDNSKNTLYLQMNSLRAEDTAVYYCARVSSGHWDYDYWGQGTLVTVSS
VL: DIQLTQSPSSLSASVGDRVTITCRASQSISSYLNWYQQKPGKAPKLLIYAASGLESGVPSRFSGSGSGTDFTLTISSLQPEDFATYYCQQTYGVPLTFGGGTKVEIK
times longer bound than the reference antibody: > 50 fold
